The source of these data is US20250154231A1 (RQBIO COVID, published 2025).

Where two headings read alike, the source gives them in different places.

One may read the Kd as a measure of binding affinity in units of concentration. The low end stands for tighter binding, the high end for weaker binding. A word on the koff: it is the rate constant with which the complex falls apart. Usually kon stands for a measure of how fast the partners come together. Read a low kon as slower complex formation.

For one experiment, the target named is T1, Omicron BA.1 RBD (SARS-CoV-2, UniProt P0DTC2 333-528).
T1 construct: domain: RBD
The experiment in a line: ELISA. On the technique in general: An ELISA detects its analyte on a solid surface through an enzyme-linked reagent.

The target in experiment [1] is T2, Omicron BA.2 RBD (SARS-CoV-2, UniProt P0DTC2 333-528).
Experiment [2] addresses T2, Omicron BA.2 RBD. The source holds these as a separate data set.
For experiment [3], the target named is T2, Omicron BA.2 RBD. The source holds these as a separate data set.

B1: Omi02 (antibody, V domains shown)
VH: EVQLVESGAEVKKPGSSVKVSCKASGGTFSSYAINWVRQAPGQGLEWMGGIIPIFRTPHYAQKFQGRVTITADESTGTAYMELSSLRSEDTAVYYCASPSCGGDCPQYLKSSKLDWYFDLWGRGTLVTVSS
VL: VIWMTQSPGTLSLSPGERATLSCRASQSVSSTYLAWYQQKPGQAPRLLIYGASSRATGIPDRFSGSGSGTDFTLTISRLEPEDFAVYYCQHYGSSPLTFGQGTRLEIK
Turning to B1, the binding result with Omicron BA.1 RBD was “binds”.

B2: Omi33 (antibody, V domains shown)
VH: EVQLLESGGGVVQPGRSLRLSCAASGFKFSDYGMHWVRQAPGKGLEWVAVYWYDGGTKFYADSVKGRFTISRDNSKNTLYLQMSSLRVEDTAVYYCARDTAPPDYWGQGTLVTVSS
VL: EIVLTQSPGTLSLSPGERATLSCRASQSISSNFLAWYQQKPGQAPRLLIYGASSRATGIPDRFSGSGSGTDFTLTISRLEPEDFAVYYCQQYGTSPRLTFGGGTKVDIK
In the case of B2, the binding result in the experiment with Omicron BA.1 RBD is reported as “binds”.

B3: Omi08 (antibody, V domains shown)
VH: EVQLVESGAEVKRPGASVKVSCKASGYTFTNYFMHWVRQAPGQGLEWMGVINPSDGGASYPQKFQGRVTMTRDTSTSTVYMDLSSLRSEDTAVYSCARGAFDVSGSWYVPFDYWGQGTLVTVSS
VL: QSVVTQPPSVSGAPGQRVTISCTGSSSNIGAGYDVHWYQQLPGAAPKLLIYGNTNRPSGVPDRFSGSKSGTSASLAITGLQAEDEADYYCQSYDITLSGSGYVFGTGTKVTVL
Turning to B3, the binding result in the experiment with Omicron BA.1 RBD is on record as “binds”.

B4: Omi12 (antibody, V domains shown)
VH: EVQLVESGPEVKKPGTSVKVSCKASGFSFSMSAMQWVRRARGQRLEWIGWIVPGSGNANYAQKFQERVTITRDESTNTGYMELSSLRSEDTAVYYCAAPHCNKTNCYDAFDIWGQGTMVTVSS
VL: AIRMTQSPGTLSLSPGERATLSCRASQSVRSSYLAWYQQKPGQAPRLLIYGASTRATGIPDRFSGSGSGTDFILTINRLEPEDLAVYYCQQFGSSPWTFGQGTKVDIK
In the experiment with Omicron BA.2 RBD [1], B4 yielded a Kd of 0.13 nM, a T1/2 of 20 min, an off-rate (koff) of 0.00058 s⁻¹ and a kon of 4.3e+06 M⁻¹ s⁻¹.

B5: Omi34 (antibody, V domains shown)
VH: QVQLVQSGAEVKKPGSSVKVSCKASGGTFSSYGIRWVRQAPGQGLEWMGGIIPVFGATNYAQKFQDRVTITADKSTATAYMELSSLKSDDTAVYFCARDALSASGWTGPFDSWGQGTLVTVSS
VL: QSVLTQPPSVSGAPGQRVTISCTGSSSNIGADYDVHWYQQLPGAAPKLLIYGNNNRPSGVPDRFSGSKSGTSASLAITGLQAEDEADYYCQSYDSSQNAFYVFGTGTKVTVL
Turning to B5, in the experiment with Omicron BA.1 RBD, the binding result was “binds”.

B6: Omi16 (antibody, V domains shown)
VH: EVQLVESGGGVVQPGGSLRLSCAASGIIVSANYMTWVRQAPGKGLEWVSVIYPGGSTFYADSVKGRFTISRDNSKNTLYLQMNSLRVEDSAVYYCARDLELAGFNDFWGQGTLVTVSS
VL: DVVMTQSPGTLALSPGERATLSCRTSQSVSSNYLAWYQQKPGQAPRLLIYGASSRATGIPDRFSGSGSGTDFTLTISRLEPEDFAVYYCQQFGSSPRYTFGQGTKVEIK
For the molecule B6, in the experiment with Omicron BA.1 RBD, the binding result was “binds”.

B7: Omi17 (antibody, V domains shown)
VH: QVQLVESGGGVVQPGGSLRLSCAASGVTVSSNYMSWVRQAPGKGLEWVSVLYAGGSTFYADSVKGRFTISRDNSKNTLYLQMNSLRAEDTAAYYCARDLAVAGFLDSWGQGTLVTVSS
VL: DIVMTQSPGTLSLSPGERATLSCRASQGVSSIYLAWYQQKPGQAPRLVLYGASSRATGIPDRFSGSGSGTDFTLTISRLEPEDFAVYYCQQYGSSPRYTFGQGTKVEIK
For B7, the binding result with Omicron BA.1 RBD is “binds”.

B8: Omi38 (antibody, V domains shown)
VH: QVQLVESGAEVKKPGSSVKVSCKASGGNFNMYTISWVRQAPGRGLEWMGRFIPIANKANYAQNFPGRVTITADKSTSTVYMELRSLTSDDTAVYYCARSGSYDAFDVWGQGTMVTVSS
VL: AIRMTQSPSTLSASVGDRVTITCRASQTINSWLAWYQQKPGKAPKLLIYDASNLESGVPSRFSGSGSGTEFTLTISSLQPDDFATYYCQQYESYSPITFGQGTRLEIK
On to B8, for which the binding result with Omicron BA.1 RBD is reported as “binds”.

B9: Omi35 (antibody, V domains shown)
VH: QVQLVESGGGLVQPGRSLRLSCAASGFTFDDYAMHWVRQAPGKGLEWVSGSTWNSGTIDYADSVKGRFTISRDNAKNSLYLQMNSLRAEDTALYYCAKDRFRKGCSSTGCYKENYGMDVWGQGTTVTVSS
VL: QSVVTQPPSVSVAPGQTARITCGGTNIGSKSVHWYQQKPGQAPVLVVYDDSDRPSGIPERFSGSNSGNTATLTITWVEAGDEADYYCQVWDSSSDNVLFGGGTKLTVL
Turning to B9, the binding result with Omicron BA.1 RBD was “binds”.

B10: Omi-18 Fab (Fab, V domains shown)
VH: QVQLVESGGGLIQPGGSLRLSCAASGITVSSNYMTWVRQAPGKGLEWVSLLYAGGSAFYADSVKGRFTISRDNSKNTLYLLMNSLRVGDTAVYYCARDLQVYGMDVWGQGTTVTVSS
VL: SYELTQPPSVSVAPGQTARITCGGNNDGAKSVHWYQQKPGQAPVLVVYDDSDRPSGIPERFSGSNSGNTATLTITRIEAGDEADYYCQVWDSSRDHVFGTGTKVTVL
Turning to B10, in the experiment with Omicron BA.2 RBD [2], the dissociation constant (Kd) stood at 4.3 nM, the T1/2 stood at 20 min, the koff turned out to be 0.00057 s⁻¹ and the kon amounted to 130000 M⁻¹ s⁻¹.

B11: Omi26 (antibody, V domains shown)
VH: QVQLVQSGTEVKKPGASVKVSCKASDYTFTRFGIIWVRQAPGQGLEWMGQINPYNGNTDYAQKFQGRVTLTTDTSTNTAYMELRSLRSDDTAVYYCARSAGSPTGLDYWGQGTLVTVSS
VL: QSVVTQPPSVSEAPRQRVTISCSGSNSNIGNNAVNWYQQLPGKAPKLLVYYDDLLPSGVSDRFSGSKSGTSASLAISGLQSEDKADYYCAAWDDSLNALVFGGGTKLTVL
On to B11, for which the binding result with Omicron BA.1 RBD is on record as “binds”.

B12: Omi-20 Fab (Fab, V domains shown)
VH: EVQLVESGGGLVQPGGSLRLSCEASEITVSSNYMNWVRQAPGKGLEWVSVLFAGGTTYYADSVKGRFTISRDNSKNTLYLQMNTLRIEDTAIYYCARDLVAYGVDVWGQGTTVTVSS
VL: AIQMTQSPSFLSASVGDRVTITCRASQGISGDLAWYQQKPGKAPKLLIYAASTLQSGVPSRFSGSGSGTEFTLTISSLQPEDFATYYCQHLNSYPLTFGGGTKVEIK
With B12, in the experiment with Omicron BA.2 RBD [3], the dissociation constant (Kd) amounted to 138 nM, the T1/2 is 3.2 min, the koff stood at 0.0036 s⁻¹ and the kon was found to be 26000 M⁻¹ s⁻¹.

B13: Omi24 (antibody, V domains shown)
VH: QVQLVESGAEVKKPGSSVKVSCKASGGTFSSHGVIWVRQAPGQGLEWMGGIIPIFPTANYAQKFQGRVTITADKPSNTAYMELSSLRSEDTAVYYCARARGEHDSVWGSFHYYFDYWGQGTLVTVSS
VL: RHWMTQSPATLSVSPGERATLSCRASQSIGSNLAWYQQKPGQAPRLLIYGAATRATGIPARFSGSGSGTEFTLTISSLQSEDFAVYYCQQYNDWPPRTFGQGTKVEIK
B13: the binding result with Omicron BA.1 RBD is listed as “binds”.

B14: Omi27 (antibody, V domains shown)
VH: EVQLLESGGGLVQPGGSLRLSCVASGLTVSSNYMSWVRQAPGKGLEWVSIIYPGGTTYYADSVKGRFTTSRDKSKNTLYLQMNSLRAEDTAVYYCARDLAVAGGMDVWGQGTTVTVSS
VL: EIVMTQSPSSLSASVGDRVTITCRASQGIGNDLGWYQQKPGKAPKVLIYAASNLQSGVPSRFSGSGSGTDFTLTISSLQPEDFATYYCLQDSNYPYTFGQGTKVEIK
As for B14, the binding result with Omicron BA.1 RBD is on record as “binds”.

B15: Omi39 (antibody, V domains shown)
VH: QVQLVESGGVVVQPGGSLRLSCAASGFSFDDYSMHWVRQAPGKGLEWVSVIYWDGVSKYYADSVKGRFTISRDNSKNSLYLQMNSLRTEDTAVYYCAKDSEDCSSTSCYMDVWGKGTTVTVSS
VL: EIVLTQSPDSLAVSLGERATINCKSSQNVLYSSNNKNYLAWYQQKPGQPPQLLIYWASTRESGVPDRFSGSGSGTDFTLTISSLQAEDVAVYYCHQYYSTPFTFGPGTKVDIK
Take B15: the binding result with Omicron BA.1 RBD is reported as “binds”.

B16: Omi25 (antibody, V domains shown)
VH: QVQLVESGGGLVQPGRSLRLSCAASGFTFDDYAMHWVRQVPGKGLEWVSGISWNSGSIVYADFVKGRFTIARDNAKNSLFLQMNSLRAEDTALYYCAKSTALRHQYYYGMDVWGQGTTVTVSS
VL: AIQMTQSPSSLSASVGDRVTITCRTSQTISSYLNWYQQKPGKAPKLLIYDASSLQSGVPSRFSGSGYGTDFTLTISSLQPEDFATYFCQQSYNTPYAFGQGTKVEIK
B16: the binding result with Omicron BA.1 RBD is given as “binds”.

B17: Omi28 (antibody, V domains shown)
VH: EVQLVESGGGLVQPGGSLRLSCAASGVIVSSNYMSWVRQAPGKGLQWVSVIYSGGSTFYADSVKGRFTISRDNSKNTLYLQMNSLRAEDTAVYYCARDLLEAGGTDYWGQGTLVTVSS
VL: DVVMTQSPGTLSLSPGERATLSCRASQFIGSSYLAWYQQKPGQAPRLLIYGASNRATGVPDRFSGSGSGTDFTLTISRLEPEDFAVYYCQQYGSAPGTFGQGTKVEIK
Turning to B17, in the experiment with Omicron BA.1 RBD, the binding result was “binds”.

B18: Omi29 (antibody, V domains shown)
VH: QVQLVESGGGLVQPGGSLRLSCAASGLIVSRNYMSWVRQAPGKGLEWVSLIYAGGSTFYSDSVKGRFTISRHSSENTLFLQMNSLRAEDTAVYYCARDLVHYGMDVWGQGTTVTVSS
VL: NFMLTQPASVSGSPGQSITISCTGTSSDVGGYNYVSWYQQHPGKAPKLMIYDVSNRPSGVSNRFSGSNSGNTASLTISGLQAEDEADYYCSSYTSGSTWVFGGGTKLTVL
Take B18: the binding result with Omicron BA.1 RBD is on record as “binds”.

B19: Omi09 (antibody, V domains shown)
VH: QVQLVESGGGVVQPGRSLRLSCAASGFTFRTYAVHWVRQAPGKGPEWVAVISYDGSNKYYADSVKGRFTLSRDTSKNTLYLQMNSLRAEDTAVYYCASRGDTVTTGDAFDIWGQGTMVTVSS
VL: SYELTQPPSVSVSPGQTARITCSGDALPKQYTYWYQQKPGQPPVLVIYKDSERPSGIPERFSGSSSGTTVTLTISGVQAEDEADYYCQSTDSSATYPGNVVFGGGTKLTVL
As to B19, in the experiment with Omicron BA.1 RBD, the binding result is “binds”.

B20: Omi23 (antibody, V domains shown)
VH: QVQLQESGPGLVKSSQTLSLTCTVSGDSISRGGYYWSWIRQHPGKGLEWIGSIYYSGSTYYNPSLKSRFTISVDTSKNQFSLKLSSVTAADTAVYHCAREIGFLDYWGQGTLVTVSS
VL: AIQMTQSPSSLSASVGDRVTITCRASQAISNSLAWYQQKPGKAPKLLLYAASTLESGVPSRFSGSGSGTDFTLTISSLQPEDFATYFCQQYYSTPPRTFGQGTKVDIK
Consider B20, for which, in the experiment with Omicron BA.1 RBD, the binding result was “binds”.

B21: Omi30 (antibody, V domains shown)
VH: EVQLVESGAEVKKPGSSVKVSCKASGGTFSRYAISWVRQAPGQGLEWMGGIIPIFDATNYAQKFHDRVTITADKSASTAYMELSSLRSDDTAVYYCARERTYCSGGTCYGGYFYYGMDVWGQGTTVTVSS
VL: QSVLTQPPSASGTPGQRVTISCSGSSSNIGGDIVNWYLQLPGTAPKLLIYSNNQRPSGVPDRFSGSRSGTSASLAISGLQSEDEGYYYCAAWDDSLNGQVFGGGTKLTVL
In the case of B21, in the experiment with Omicron BA.1 RBD, the binding result is “binds”.
